Literature values, collected in article PMC3981547.
Where two headings read alike, the source gives them in different places.

Key:
IL-2Rβ (Homo sapiens) = IL-2Rβ (Homo sapiens) (UniProt P14784)
IL-2Rβ/γc (Homo sapiens) = IL-2Rβ/γc (Homo sapiens) (UniProt P14784)
γc (Homo sapiens) = γc (Homo sapiens) (UniProt P31785)
IL-2Rα (Homo sapiens) = IL-2Rα (Homo sapiens) (UniProt P01589)
[1] = molecular target: IL-4Rα ECD (Homo sapiens) (UniProt P24394); assay: ITC
IL-13Rα1 (Homo sapiens) [2] = molecular target: IL-13Rα1 (Homo sapiens) (UniProt P78552)
Sequence of UniProt P78552 (P78552 22-343): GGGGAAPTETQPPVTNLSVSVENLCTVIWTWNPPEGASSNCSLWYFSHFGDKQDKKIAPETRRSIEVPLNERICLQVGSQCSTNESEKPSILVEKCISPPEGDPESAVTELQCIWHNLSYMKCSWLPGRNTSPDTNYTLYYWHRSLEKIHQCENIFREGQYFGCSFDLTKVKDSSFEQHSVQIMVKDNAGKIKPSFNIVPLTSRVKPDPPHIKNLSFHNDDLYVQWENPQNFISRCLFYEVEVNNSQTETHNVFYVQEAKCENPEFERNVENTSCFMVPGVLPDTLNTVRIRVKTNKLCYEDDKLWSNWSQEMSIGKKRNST

IL-13Rα1 (Homo sapiens) [3] = molecular target: IL-13Rα1 (Homo sapiens) (UniProt P78552); remark: listed apart in the source

Sequence of UniProt P01589 (P01589 22-240): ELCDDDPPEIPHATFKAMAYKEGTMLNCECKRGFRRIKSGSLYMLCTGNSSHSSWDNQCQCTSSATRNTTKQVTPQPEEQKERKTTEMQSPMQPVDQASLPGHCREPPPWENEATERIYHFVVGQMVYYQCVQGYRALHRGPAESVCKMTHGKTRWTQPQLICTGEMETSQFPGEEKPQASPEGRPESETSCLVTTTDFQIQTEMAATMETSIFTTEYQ
Sequence of UniProt P24394 (P24394 26-232): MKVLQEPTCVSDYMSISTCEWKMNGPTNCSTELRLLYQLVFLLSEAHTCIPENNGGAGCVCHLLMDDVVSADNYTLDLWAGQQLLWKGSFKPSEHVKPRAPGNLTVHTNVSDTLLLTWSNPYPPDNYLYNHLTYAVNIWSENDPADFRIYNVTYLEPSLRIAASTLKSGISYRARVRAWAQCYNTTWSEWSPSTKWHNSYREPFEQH
Sequence of UniProt P31785 (P31785 23-262): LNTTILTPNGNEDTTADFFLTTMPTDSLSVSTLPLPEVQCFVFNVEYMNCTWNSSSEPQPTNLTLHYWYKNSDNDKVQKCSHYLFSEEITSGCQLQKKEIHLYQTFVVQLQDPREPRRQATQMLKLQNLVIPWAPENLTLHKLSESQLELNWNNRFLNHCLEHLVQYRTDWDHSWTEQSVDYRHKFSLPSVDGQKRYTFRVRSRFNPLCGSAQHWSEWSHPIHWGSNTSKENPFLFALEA

IL-2 (from UniProt P60568)
Kd (IL-2Rβ (Homo sapiens)): 100 nM
Kd (IL-2Rβ/γc (Homo sapiens)): 1 nM
Kd (γc (Homo sapiens)): 700000 nM
Kd (IL-2Rα (Homo sapiens)): 10 nM

IL-4 (from UniProt P05112)
Kd [1]: 1 nM

IL-4/IL-4Rα (from UniProt P05112)
Kd (IL-13Rα1 (Homo sapiens) [2]): 487 nM

IL-13 (from UniProt P35225)
Kd (IL-13Rα1 (Homo sapiens) [3]): 30 nM
